Our source for the Kd values is publication PMC9341007 (Structure (London, England : 1993), 2022).

In the assay the target is equine ACE2 peptidase domain (horse (Equus caballus), UniProt A0A9L0TPT7 19-615). Briefly: SPR.

B1: hCoV-NL63 spike receptor-binding domain (domain or fragment)
chain: QHTDINFTATASFGGSCYVCKPHQVNISLNGNTSVCVRTSHFSIRYIYNRVKSGSPGDSSWHIYLKSGTCPFSFSKLNNFQKFKTICFSTVEVPGSCNFPLEATWHYTSYTIVGALYVTWSEGNSITGVPYPVSGI
In turn, B1 gave a Kd of 106 nM.
